# Residue numbers refer to the chain shown, from its start.
# B1: 4D3单克隆抗体 (antibody, V domains shown)
# VH: EVKLVESGGGLVKPGGSLKLSCAASGFTFSASAQSWVRQIPEKRLEWVALQSRSGSLYFPASVKQRFTISRDNARNICYLQMNSLRSDDTAMYYCARSREASGGYIDEWGQGTTLTVSS
# VL: DIVLTQSPASLAVSLGQRATISCSASESGGYYGTSLMNWYQQKPGQPPKLLIYSTSNEEKGVPARFSGSGSGTDFSLNIHPVEEDDIAMYFCGQSMKRPLRFGAGTKLELK
# B2: 6F4单克隆抗体 (antibody, V domains shown)
# VH: EVKLVESGGGLVKPGGSLKLSCAASGFTFSQYASLWVRQIPEKRLEWVAAISGQGSLYFPDSVCTRFTISRDNARNICYLQMNSLRSDDTAMYYCARGAAADGGYFDTWGQGTTLTVSS
# VL: DIVLTQSPASLAVSLGQRATISCSASESVEFSGTSLTRWYQQKPGQPPKLLIYASQNVEGGVPARFSGSGSGTDFSLNIHPVEEDDIAMYFCCYSMKVPPRFGAGTKLELK
# B3: 6G5单克隆抗体 (antibody, part only; not given: Light chain variable region, V domains shown, part only)
# VH: EVKLVESGGGLVKPGGSLKLSCAASGFTFSAYAMTWVRQIPEKRLEWVAAISPTGSLYFPGSVSGRFTISRDNARNICYLQMNSLRSDDTAMYYCARGVEADSQYFDKWGQGTTLTVSS
# B4: 3E2单克隆抗体 (antibody, V domains shown)
# VH: EVKLVESGGGLVKPGGSLKLSCAASGFTFSNSAMRWVRQIPEKRLEWVAVIRAGGSLYFPDRVKSRFTISRDNARNICYLQMNSLRSDDTAMYYCARGREADGGYFDYWGQGTTLTVSS
# VL: DIVLTQSPASLAVSLGQRATISCAASERREYYGTSLASWYQQKPGQPPKLLIYARSNVEYGVPARFSGSGSGTDFSLNIHPVEEDDIAMYFCGSSMKRPLRFGAGTKLELK
# B5: 5D7单克隆抗体 (antibody, V domains shown)
# VH: EVKLVESGGGLVKPGGSLKLSCAASGFTFSDAAMRWVRQIPEKRLEWVASISSLISLYFPDSVESRFTISRDNARNICYLQMNSLRSDDTAMYYCARGAEASGGYFDQWGQGTTLTVSS
# VL: B4 VL with A24S, R28H, R29P, A37M, S38A, R55S, Y60T, G93Q, S94V, R101D
# B6: 5A3单克隆抗体 (antibody, V domains shown)
# VH: B4 VH with N31R, S32Y, R35S, V50A, R52S, A53S, R62S, S65G
# VL: DIVLTQSPASLAVSLGQRATISCSASESCYYYGTSLAQWYQQKPGQPPKLLIYKLSNVRGGVPARFSGSGSGTDFSLNIHPVEEDDIAMYFCRQPMKVPLKFGAGTKLELK
# B7: 2D3单克隆抗体 (antibody, V domains shown)
# VH: EVKLVESGGGLVKPGGSLKLSCAASGFTFSSAAMRWVRQIPEKRLEWVARIEEGGSAYFPDSVLVRFTISRDNARNICYLQMNSLRSDDTAMYYCARSRESPAGYFKLWGQGTTLTVSS
# VL: DIVLTQSPASLAVSLGQRATISCCASESVHPYGTSLAMWYQQKPGQPPKLLIYASSRVEPGVPARFSGSGSGTDFSLNIHPVEEDDIAMYFCSSSGQVPARFGAGTKLELK
# B8: 4D6单克隆抗体 (antibody, V domains shown)
# VH: EVKLVESGGGLVKPGGSLKLSCAASGFTFSQYRMGWVRQIPEKRLEWVAEISSASSLYFPDSVKSRFTISRDNARNICYLQMNSLRSDDTAMYYCARAREADNVYFDAWGQGTTLTVSS
# VL: DIVLTQSPASLAVSLGQRATISCSQSESGTYYGTSLAMWYQQKPGQPPKLLIYAASNVESGVPARFSGSGSGTDFSLNIHPVEEDDIAMYFCTASMKAPLRFGAGTKLELK
# Molecular target: 肝癌Huh-7细胞 (Huh-7癌细胞抗原; Huh-7细胞裂解蛋白)
# Assay: SPR, BIAcore T-200, 1:1 Langmuir model; binding to liver cancer Huh-7 cells
row,Kd [nM],Binder
1,0.29,B1
2,0.62,B2
3,0.34,B3
4,0.56,B4
5,0.45,B5
6,0.58,B6
7,0.23,B7
8,0.31,B8

# Molecular target: 肝癌Huh-7细胞 (Huh-7癌细胞抗原; Huh-7细胞裂解蛋白)
# Assay: indirect ELISA; plate coated with 2 μg/mL Huh-7 cell antigen; purified ascites antibody in 2-fold dilutions
row,抗体效价,Binder
1,5.12e+06,B1
2,2.56e+06,B2
3,5.12e+06,B3
4,2.56e+06,B4
5,5.12e+06,B5
6,2.56e+06,B6
7,5.12e+06,B7
8,5.12e+06,B8
